Paper PMC3904827, “Segmental Helical Motions and Dynamical Asymmetry Modulate Histidine Kinase Autophosphorylation” (PLoS Biology, 2014)
Where a chain is given by its changes, count along the chain named.

B1: full cytoplasmic region of E. coli CpxA (CpxAHDC), wild type (domain or fragment, Escherichia coli, UniProt P0AE82 188-457, looked up)
chain: KPARKLKNAADEVAQGNLRQHPELEAGPQEFLAAGASFNQMVTALERMMTSQQRLLSDISHELRTPLTRLQLGTALLRRRSGESKELERIETEAQRLDSMINDLLVMSRNQQKNALVSETIKANQLWSEVLDNAAFEAEQMGKSLTVNFPPGPWPLYGNPNALESALENIVRNALRYSHTKIEVGFAVDKDGITITVDDDGPGVSPEDREQIFRPFYRTDEARDRESGGTGLGLAIVETAIQQHRGWVKAEDSPLGGLRLVIWLPLYKRS
notes: Sensor histidine kinase CpxA, Escherichia coli, full cytoplasmic region: HAMP domain (residues 188-237) and DHp and CA domains (residues 238-457); The trigonal (4BIV) and hexagonal (4CB0) crystals were grown from seleno-methionyl protein; Crystallised with ADP or ATP; also called CpxA transmitter core; wild-type CpxAHDC; source: SeMet protein from E. coli B834 (DE3)
B2: point mutant CpxA_(HDC_M228V) of the full cytoplasmic region of E. coli CpxA (domain or fragment, Escherichia coli, UniProt P0AE82 188-457, looked up)
chain: B1 chain with M41V
notes: Sensor histidine kinase CpxA, Escherichia coli, full cytoplasmic region (HAMP 188-237, DHp and CA 238-457) with the point mutation Met228-Val in the HAMP domain; Probably made like wild-type CpxAHDC (His-tagged, pET28a+, E. coli, IMAC and gel filtration), but the methods describe only the CpxAHDC construct; Crystallised with AMPPNP or ADP; also called CpxAHDC Met228-Val; source: purified protein

Legend:
[1] = molecular target: the molecule itself; test: crystal structure; dimers to tetramer (dimer of dimers) as seen in the hexagonal and monoclinic crystal forms; vapor diffusion at 18°C, protein at ~15 mg/ml
[2] = molecular target: the molecule itself; test: crystal structure; monomers to homodimer; vapor diffusion at 18°C, protein at ~15 mg/ml, in complex with nucleotides; five crystal forms (C222_(1), P3_(1)21, P6_(1)22, C2, I2)

Protein	stoichiometry N [1]	stoichiometry N [2]
B1	4	2
B2	4	2
